Results: patent US20140010757A1 (Stanford University, published 2014)
No end group written: not given here.

Tests used:
[1] = molecular target: αvβ3 integrin on cells (U87MG glioblastoma cells; K562-αvβ3 cells) (UniProt P06756); experiment: competing off binding of ^125I-echistatin (U87MG cells)
[2] = molecular target: T1, α5β1 integrin (detergent-solubilized) (UniProt P08648 42-1049; P05556 21-798); experiment: competition with ^125I-echistatin on plate-coated detergent-solubilized integrin
T1 construct: Coated on microtiter plates; also called integrin α5β1

[3] = molecular target: T2, αvβ3 integrin on cells (U87MG glioblastoma cells; K562-αvβ3 cells) (UniProt P06756 31-1048; P05106 27-788); experiment: competition with ^125I-echistatin on U87MG cells
T2 construct: whole, on cells; also called cell surface αvβ3 integrin

Question: For WT (synthesized Agouti peptide), which IC50 [1] is on record?
Answer: The IC50 was 1.4 µM.

Question: Does QCESGPCCRNCKFLKEGTICKRARGDDMDDYCNGKTCDCPRNPHKGPAT (ligand, ends and bridges not checked; cysteine pairing not given here) [echistatin (unlabeled)] bind [2]?
Answer: Result: binds

B1: ^64Cu-DOTA-7C AgRP engineered peptide (designed binder)
chain: GCVRLHESCLGQQVPCCDPAATCYCYGRGDNDLRCYCR
modifications: ends and bridges not checked; also: DOTA-64Cu label (site not given here)
notes: also called ^64Cu Labeled AgRP loop 4 RDG mutant (peptide 7C); labeled 7C
Question: Does B1 bind [3]?
Answer: Result: binds
